Where a SMILES comes first, the peptide text is derived from it. Where no end group is shown, it is not given here. Side-chain parts run from the residue outwards. Texas Red = Texas Red: fluorescent dye
How the values were obtained:
[1] = Solubility of peptides and fluorescent peptide conjugates in aqueous buffer; assay type: physicochemical
protein kinase A (PKA) = target: T1, protein kinase A (PKA) (Bos taurus, UniProt P00517); assay: Protein kinase A phosphorylation assay (PepTag assay kit), agarose gel electrophoresis readout; assay type: biochemical
T1 construct: purchased Promega (Madison, WI)
Protocol: The fluorescent peptides were assayed with protein kinase A (PKA) using the PepTag assay kit from Promega (Madison, WI). The concentrations of the peptides in the assay were 60 μM, and the concentration of ATP was 1 mM. After completion of the assay the 25 μL reaction mixtures were spiked with 5 μL of 50% glycerol and submitted to gel electrophoresis in a 0.8% horizontal agarose slab in 50 mM TRIS HCl, pH 8.0. The gels were imaged with a fluorescence imager. The results appear in FIG. 1. The Lissamine Kemptide reaction mixtures (− & + kinase) are included as controls. It is clear that both isomers of N-(TXR)LRRASLG [SEQ. ID NO.

SRC Kinase [2] = target: T2, SRC Kinase (Homo sapiens, UniProt P12931); assay: SRC kinase assay of fluorescent peptidic substrates, agarose gel electrophoresis readout; assay type: biochemical; details: for substrate of SRC kinase (FIG. 4): peptide 20 μM, 10 units SRC kinase, 1 h at room temperature
Protocol: An assay of the fluorescent peptidic substrate was performed in the presence of SRC Kinase. The peptide concentration was 10 μM, and the ATP concentration was 100 μM. The reaction proceeded in a buffer comprising 25 mM sodium (N-[2-hydroxyethyl]piperazine-N′-[2-ethanesulfonate]), 20 mM magnesium chloride, pH 7.4 for 90 min at room temperature, and the reaction mixture was submitted to gel electrophoresis in a 0.8% agarose slab at pH 8.0. Nearly 75% conversion of the substrate to product took place, and the substrate and product migrated in opposite directions. The results appear in FIG. 3.
A kinase assay was performed with each of these peptides as substrates. The concentrations of the Ac-C-[S-(BTR-Jeff)]EEFIYGAFKKKK [SEQ. ID NO. 3] and Ac-C-[S-(BTR-Jeff)]EEFIYGAFRRRR [SEQ. ID NO. 4] were 20 μM, respectively. The ATP concentration in each reaction was 100 μM, and 10 units of SRC kinase were added per reaction. The reactions proceeded at room temperature for 1 h. The reaction mixtures were spiked with 50% glycerol to give a final concentration of 10%. The samples (25 μL) were submitted to gel electrophoresis on a 0.8% agarose slab in 50 mM TRIS HCl, pH 8.0.
The SRC substrate Ac-C-[S-(TXR-Jeff)]EEFIYGAFKKKK [SEQ. ID NO. 5] was prepared and assayed as described by the method in Example 5 with the exceptions that TXR-Jeffamine-BAA was used as the fluorophore and the assay was allowed to proceed overnight. The results of the assay appear in FIG. 5. The anode is to the left and the cathode to the right. N-(TXR)-LRRASLG [SEQ. ID NO. 11] (Texas Red labeled Kemptide) and its phosphorylated derivative were included as mobility standards.

SRC Kinase [3] = target: T2, SRC Kinase; details: screen done by investigators at Selectide; cited from earlier work
[4] = tested on: T3, C-[S-(TXR-Jeff)]EEEFIYGAFKKKK
T3 sequence: CEEEFIYGAFKKKK

[5] = tested on: T4, conjugate comprising just the BODIPY630/650 and Kemptide
T4 sequence: LRRASLG

For `CC[C@H](C)[C@H](NC(=O)[C@H](Cc1ccccc1)NC(=O)[C@H](C)NC(=O)[C@H](C)NC(=O)[C@@H](N)CS)C(=O)N[C@@H](Cc1ccc(O)cc1)C(=O)NCC(=O)N[C@@H](C)C(=O)N[C@@H](Cc1ccccc1)C(=O)N[C@@H](CCCCN)C(=O)O` [CAAFIYGAFK] (H-CAAFIYGAFK-OH; N-terminus and C-terminus assumed), the solubility [1] was “Insolubility”.
With “(BODIPY-PEG)-labeled Kemptide: BODIPY630/650 coupled to Kemptide LRRASLG through a 3,400 molecular weight PEG spacer (not fully specified; also: BODIPY630/650 label, attachment site not given here)” the “phosphorylation by Protein Kinase A (Example 3, FIG. 2)” value (protein kinase A (PKA)) was “successfully phosphorylated”.
For “Ac-C-[S-(BTR-Jeff)]EEFIYGAFKKKK: BODIPY TR-Jeffamine ED-900 conjugate of N-acetylated peptide Ac-CEEFIYGAFKKKK (Ac-C([Jeffamine ED‑900-BODIPY TR])EEFIYGAFKKKK)”, the “substrate of SRC kinase (FIG. 4)” value (SRC Kinase [2]; ATP 100 μM) was “is a substrate of SRC kinase”.
In the case of “Ac-C-[S-(BTR-Jeff)]EEFIYGAFRRRR: BODIPY TR-Jeffamine ED-900 conjugate of N-acetylated peptide Ac-CEEFIYGAFRRRR (Ac-C([Jeffamine ED‑900-BODIPY TR])EEFIYGAFRRRR)”, the solubility [1] is reported as “much lower”, the “quality/reactivity as substrate for SRC kinase (in words)” value (shortened to “quality/reactivity as substrate”) (SRC Kinase [2]) is reported as “did not result in a sufficiently reactive substrate” and the “substrate of SRC kinase (FIG. 4)” value (SRC Kinase [2]; ATP 100 μM) is reported as “is not”.
For “Ac-C-[S-(TXR-Jeff)]EEFIYGAFKKKK: Texas Red-Jeffamine ED-900 conjugate of N-acetylated peptide Ac-CEEFIYGAFKKKK (Example 6) (Ac-C([Jeffamine ED‑900-Texas Red])EEFIYGAFKKKK)”, the “quality/reactivity as substrate” value (SRC Kinase [2]) was “good reactivity”.
In the case of “C-[S-(TXR-Jeff)]EEEFIYGAFKKKK: Texas Red linked through a Jeffamine ED-900 PEG spacer to the cysteine thiol of peptide CEEEFIYGAFKKKK; SRC kinase substrate (C([Jeffamine ED‑900-Texas Red])EEEFIYGAFKKKK)”, the “quality/reactivity as substrate” value (SRC Kinase [2]) is reported as “good substrate”, the Km (SRC Kinase [2]; fluorescent peptide as substrate for SRC Kinase) is reported as 8.5 µM and the “conversion of the substrate to product” value (SRC Kinase [2]; peptide 10 μM, ATP 100 μM, pH 7.4, 90 min at room temperature) is reported as ~75%.
For FIYGAFK (Test Substrate Sequence), the “active substrate of SRC Kinase in resin-bound peptide library screen” value (SRC Kinase [3]) is listed as “active substrate”.
For “N-(TXR)LRRASLG: Texas Red-X labeled Kemptide prepared for comparison (Example 1) ({Texas Red‑X}-LRRASLG)”, the “substrate for PKA (FIG. 1)” value (protein kinase A (PKA); peptide 60 μM, ATP 1 mM) was “substrates for PKA”.
With SRC kinase the “Km (kinase assay)” value [4] was “Km=8.5 µM” and the “conversion of the substrate to product (kinase assay, agarose gel electrophoresis)” value [4] was “Nearly 75% conversion of the substrate to product took place”.
In the case of “conjugate comprising just the BODIPY630/650 and Kemptide: BODIPY630/650 coupled to Kemptide LRRASLG without PEG spacer (also: BODIPY630/650 coupled without spacer, site not given here) [reference compound]”, the solubility [1] is reported as “so low” and the “phosphorylation by Protein Kinase A (Example 3, FIG. 2)” value (protein kinase A (PKA)) is reported as “could not phosphorylate”.
With protein kinase A (PKA) the phosphorylation [5] was “its solubility was so low that Protein Kinase A could not phosphorylate it”.
